Values joined by “and” are separate entries in the source; they are usually repeats but may differ in a detail not shown here. Equal values may be shown once.
Target: the molecule itself
Experiment: SDS-PAGE (SDS-resistant oligomers); increasing concentrations of purified His-BKPyV agnoprotein on SDS PAGE, probed with anti-agnoprotein or anti-His antibody; oligomerisation concentration dependent

B1: recombinant 10xHis BKPyV agnoprotein (natural protein)
chain: MVLRQLSRQASVKVGKTWTGTKKRAQRIFIFILELLLEFCRGEDSVDGKNKSTTALPAVKDSVKDS
notes: agnoprotein of BK polyomavirus, DNA codon optimised for E. coli, amplified with primers from the ATG to the stop codon and cloned into pET19b (KpnI/BamHI); also called 10xHis BK agnoprotein; recombinant agnoprotein; source: E. coli DE3 gold, purified (NiNTA, HiTrap SP ion exchange, C4 solid phase extraction; dissolved in DMSO); not shown: His10, N-terminal, kept
With B1 the “stoichiometry N” value was 2 and 4 and 5.
